Each block holds one molecule with its values, some of them ahead of it.
B1: human SLAM (SLAM1, encoded by pSURslam1), cell surface (receptor)
chain: RMMNCPKILRQLGSKVLLPLTYERINKSMNKSIHIVVTMAKSLENSVENKIVSLDPSEAGPPRYLGDRYKFYLENLTLGIRESRKEDEGWYLMTLEKNVSVQRFCLQLRLYEQVSTPEIKVLNKTQENGTCTLILGCTVEKGDHVAYSWSEKAGTHPLNPANSSHLLSLTLGPQHADNIYICTVSNPISNNSQTFSPWPGCRTDPSETKPWAVYAGLLGGVIMILIMVVILQLRRRGKTNHYQTTVEKKSLTIYAQVQKPGPLQKKLDSFPAQDPCTTIYVAATEPVPESVQETNSITVYASVTLPES
B2: SLAM-Ig (SLAM-immunoglobulin fusion protein: entire extracellular domain of human SLAM fused to the Fc portion of human IgG1 heavy chain) (Fc fusion)
chain: ASYGTGGRMMNCPKILRQLGSKVLLPLTYERINKSMNKSIHIVVTMAKSLENSVENKIVSLDPSEAGPPRYLGDRYKFYLENLTLGIRESRKEDEGWYLMTLEKNVSVQRFCLQLRLYEQVSTPEIKVLNKTQENGTCTLILGCTVEKGDHVAYSWSEKAGTHPLNPANSSHLLSLTLGPQHADNIYICTVSNPISNNSQTFSPWPGCRTDPSETKP
notes: Fluorescein conjugated for flow cytometry; also called recombinant SLAM-Ig; soluble form of SLAM (SLAM-Ig); not shown: Fc portion of the human IgG1 heavy chain

Tests used:
[1] = biological target: human SLAM (SLAM1, encoded by pSURslam1), cell surface (human) (UniProt Q13291); assay: cell-based or functional assay
[2] = biological target: the molecule itself; assay: cell-based or functional assay
[3] = biological target: B1; assay: flow cytometry on SLAM/L cells; reference mAb A12
Protocol: The binding of SLAM-Ig to SLAM transfectants is specific for the SLAM portion of the molecule and not the Ig, as the staining was performed in the presence of excess IgG in the 30% human serum added. Furthermore, SLAM transfectants were not stained by other Fc containing molecules such as CD40-Ig. The binding of SLAM-Ig was about 5-fold lower than the binding to SLAM/L cells observed using an equivalent concentration of the mAb A12. […] SLAM-Ig binding to transfected cells was not inhibited by EDTA.
(§1) The A12 anti-SLAM mAb has been described. Phycoerythrin conjugated CD45RO and CD3 mAbs were purchased from Becton-Dickinson. Cells stained with mAbs, SLAM-Ig or CD40-Ig were washed three times with PBS, 2% FCS and analyzed using a FACScan (Becton-Dickinson).

[4] = biological target: B1; assay: flow cytometry on different SLAM-expressing cell types; reference mAb A12
Text: as §1
However, SLAM-Ig did bind to EBV-transformed B-cell lines and CD4^+ T-cell clones, both cell types which we have shown to express SLAM. In no cell types tested did SLAM-Ig bind to cells not expressing SLAM. In addition, the levels of SLAM-Ig binding co-modulated with SLAM expression on CD45RO^+ T cells following activation with anti-CD3. The level of SLAM-IG staining relative to A12 staining on different cell-types was consistent with that observed on L-cell transfectants being 5-fold lower and Ca^++ independent.

[5] = biological target: the molecule itself; assay: SPR (BIACORE), SLAM-Ig immobilized, SLAM-Ig in solution at 100 nM to 1500 nM, 5 µl/min
Protocol: (§2) Ab 7D4/SLAM-Ig and SLAM-Ig/SLAM-Ig binding kinetics and affinity were measured. About 8000 resonance units (RUs) of SLAM-Ig were covalently attached to the dextran matrix in the sensor chip via its lysines, according to the manufacturers protocol (BIACORE™ manual, Pharmacia Biosensor). Buffer (phosphate-buffer saline, PBS, pH 7.0) was passed through the flow cell until all of the dissociable protein was removed and the baseline remained stable. Solutions containing various concentrations of the antibody 7D4 in PBS (ranging from 10 nM to 500 nM) were then passed through the flow cell. An increase in mass of protein bound was observed, followed by a decrease when the protein solution was replaced with buffer. A non-linear data analysis protocol, O'Shannessy, et al. (1993) *Anal. Biochem.* 212:457–468, was used to analyze the data to determine the association (k_a) and dissociation (k_d) rate constants. The equilibrium dissociation constant K_d was then calculated from the ratio k_d/k_a.
SLAM-Ig/SLAM-Ig binding kinetics were measured in a similar manner. After immobilization of SLAM-Ig to the chip, solutions of SLAM-Ig at concentrations ranging from 100 nM to 1500 nM were passed through the flow cell at a flow rate of 5 μl/min. From the association and dissociation phases, the corresponding rate constants and thus the equilibrium binding constant were obtained.

[6] = biological target: the molecule itself; assay: SPR (BIACORE), SLAM-Ig immobilized, SLAM-Ig in solution; apparent Kd from the rate constants
Protocol: The equilibrium constants for SLAM/SLAM interactions were analyzed by surface plasmon resonance using a BIACORE™ (Pharmacia) instrument. An anti-SLAM Ab 7D4 was used.
as §2
SLAM-Ig/SLAM-Ig binding kinetics were measured in a similar manner. […]

IFN-γ production (pg/ml) by antigen-stimulated T-cell clone Th0/ChT38; no antibody 5207, control Ab 7463 [1]: 20600 pg/mL
IFN-γ production (pg/ml) by antigen-stimulated T-cell clone Th0/MoT81; no antibody 5423, control Ab 6596 [1]: 18200 pg/mL
IFN-γ production (pg/ml) by antigen-stimulated T-cell clone Th1/HY06; no antibody 5982, control Ab 5904 [1]: 21900 pg/mL
IFN-γ production (pg/ml) by antigen-stimulated T-cell clone Th1/TA20; no antibody 8374, control Ab 8070 [1]: 15400 pg/mL
IFN-γ production (pg/ml) by antigen-stimulated T-cell clone Th2/MoT72; no antibody 496, control Ab 170 [1]: 8580 pg/mL
IFN-γ production (pg/ml) by antigen-stimulated T-cell clone Th2/NP12; no antibody 962, control Ab 902 [1]: 8300 pg/mL
IFN-γ production (pg/ml) by antigen-stimulated T-cell clone Th2/NP44; no antibody 1073, control Ab 1319 [1]: 7660 pg/mL
IFN-γ production by Th2 clones, fold upregulation [1]: 5 to 17 fold
IL-4 production (pg/ml) by antigen-stimulated T-cell clone Th0/ChT38; no antibody 12907, control Ab 10102 [1]: 15000 pg/mL
IL-4 production (pg/ml) by antigen-stimulated T-cell clone Th0/MoT81; no antibody 8455, control Ab 8451 [1]: 11100 pg/mL
IL-4 production (pg/ml) by antigen-stimulated T-cell clone Th1/HY06; no antibody 48, control Ab 40 [1]: 90 pg/mL
IL-4 production (pg/ml) by antigen-stimulated T-cell clone Th1/TA20; no antibody 62, control Ab 69 [1]: 97 pg/mL
IL-4 production (pg/ml) by antigen-stimulated T-cell clone Th2/MoT72; no antibody 8805, control Ab 8542 [1]: 16500 pg/mL
IL-4 production (pg/ml) by antigen-stimulated T-cell clone Th2/NP12; no antibody 6636, control Ab 6486 [1]: 11100 pg/mL
IL-4 production (pg/ml) by antigen-stimulated T-cell clone Th2/NP44; no antibody 11617, control Ab 11738 [1]: 10400 pg/mL
anti-CD3 induced T-cell proliferation at optimal anti-CD3, fold increase [1]: 2 to 3 fold
Molecule: anti-SLAM monoclonal antibody A12 (IgG1)

Molecule: B1
proliferation of T cell clone B21 activated with SLAM/L cells, fold enhancement by cyclosporin at 2 µg/ml [2]: 2 fold

Molecule: B2
fold lower binding than an equivalent concentration of mAb A12 [3]: ~5 fold
fold lower staining relative to A12 staining [4]: 5 fold
koff [5]: 0.011 s⁻¹
kon [5]: 12000 M⁻¹ s⁻¹
Kd [6]: 920 nM

— patent publication US6399065 (SCHERING, dated 2002)
